Key:
HeLa Kyoto [1] = experiment: melting temperature (median over replicates), in situ; higher = more thermally stable
HeLa Kyoto [2] = experiment: solubility in G1/S (NP-40 vs SDS abundance) (log2 ratio); higher = more soluble; conditions: cell cycle stage: G1/S
HeLa Kyoto [3] = experiment: solubility change mitosis vs G1/S (difference of NP-40 vs SDS log2 ratios) (log2 ratio difference); higher = more soluble in mitosis
HeLa Kyoto [4] = experiment: thermal stability score vs G1/S (z-score of summed log2 fold changes over temperatures); higher = more thermally stable than in G1/S
[5] = cell cycle stage: early G1 (4.5 h after nocodazole release)
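Throughout, for melting temperature (median over replicates), in situ: HeLa Kyoto cells synchronized by double thymidine or nocodazole block, proteins quantified by TMT10plex mass spectrometry, three independent biological replicates.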
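Throughout, for solubility change mitosis vs G1/S (difference of NP-40 vs SDS log2 ratios): synchronized HeLa Kyoto cells (double thymidine block for G1/S, nocodazole release for mitosis), protein amounts in NP-40 versus SDS lysates quantified by mass spectrometry, three biological replicates.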
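Throughout, for solubility in G1/S (NP-40 vs SDS abundance): HeLa Kyoto cells arrested at G1/S by double thymidine block, proteins quantified by TMT10plex mass spectrometry in mild NP-40 versus SDS extracts, three biological replicates.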
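Throughout, for thermal stability score vs G1/S (z-score of summed log2 fold changes over temperatures): synchronized HeLa Kyoto cells, proteins quantified by TMT10plex mass spectrometry, three biological replicates, mitosis taken 0.5 h after nocodazole release, G1/S directly after double thymidine block.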

MEFPGGNDNYLTITGPSHPFLSGAETFHTPSLGDEEFEIPPISLDSDPSLAVSDVVGHFDDLADPSSSQDGSFSAQYGVQTLDMPVGMTHGLMEQGGGLLSGGLTMDLDHSIGTQYSANPPVTIDVPMTDMTSGLMGHSQLTTIDQSELSSQLGLSLGGGTILPPAQSPEDRLSTTPSPTSSLHEDGVEDFRRQLPSQKTVVVEAGKKQKAPKKRKKKDPNEPQKPVSAYALFFRDTQAAIKGQNPNATFGEVSKIVASMWDSLGEEQKQVYKRKTEAAKKEYLKALAAYKDNQECQATVETVELDPAPPSQTPSPPPMATVDPASPAPASIEPPALSPSIVVNSTLSSYVANQASSGAGGQPNITKLIITKQMLPSSITMSQGGMVTVIPATVVTSRGLQLGQTSTATIQPSQQAQIVTRSVLQAAAAAAAAASMQLPPPRLQPPPLQQMPQPPTQQQVTILQQPPPLQAMQQPPPQKVRINLQQQPPPLQIKSVPLPTLKMQTTLVPPTVESSPERPMNNSPEAHTVEAPSPETICEMITDVVPEVESPSQMDVELVSGSPVALSPQPRCVRSGCENPPIVSKDWDNEYCSNECVVKHCRDVFLAWVASRNSNTVVFVK [TOX4]
melting temperature (HeLa Kyoto [1]; cell cycle stage: G1/S): 50.6 °C
melting temperature (HeLa Kyoto [1]; cell cycle stage: mitosis): 53 °C
solubility in G1/S (log2) (HeLa Kyoto [2]): -0.562
solubility change mitosis (log2) (HeLa Kyoto [3]): 0.0879
thermal stability score (HeLa Kyoto [4]; [5]): 0.423
thermal stability score (HeLa Kyoto [4]; cell cycle stage: mitosis): 0.887

MEFVKCLGHPEEFYNLVRFRIGGKRKVMPKMDQDSLSSSLKTCYKYLNQTSRSFAAVIQALDGEMRNAVCIFYLVLRALDTLEDDMTISVEKKVPLLHNFHSFLYQPDWRFMESKEKDRQVLEDFPTISLEFRNLAEKYQTVIADICRRMGIGMAEFLDKHVTSEQEWDKYCHYVAGLVGIGLSRLFSASEFEDPLVGEDTERANSMGLFLQKTNIIRDYLEDQQGGREFWPQEVWSRYVKKLGDFAKPENIDLAVQCLNELITNALHHIPDVITYLSRLRNQSVFNFCAIPQVMAIATLAACYNNQQVFKGAVKIRKGQAVTLMMDATNMPAVKAIIYQYMEEIYHRIPDSDPSSSKTRQIISTIRTQNLPNCQLISRSHYSPIYLSFVMLLAALSWQYLTTLSQVTEDYVQTGEH [FDFT1]
melting temperature (HeLa Kyoto [1]; cell cycle stage: G1/S): 52.2 °C
melting temperature (HeLa Kyoto [1]; cell cycle stage: mitosis): 51.4 °C
solubility in G1/S (log2) (HeLa Kyoto [2]): -0.184
solubility change mitosis (log2) (HeLa Kyoto [3]): -0.0823
thermal stability score (HeLa Kyoto [4]; [5]): 1.39
thermal stability score (HeLa Kyoto [4]; cell cycle stage: mitosis): 0.889

MEGAGYRVVFEKGGVYLHTSAKKYQDRDSLIAGVIRVVEKDNDVLLHWAPVEEAGDSTQILFSKKDSSGGDSCASEEEPTFDPGYEPDWAVISTVRPQLCHSEPTRGAEPSCPQGSWAFSVSLGELKSIRRSKPGLSWAYLVLVTQAGGSLPALHFHRGGTRALLRVLSRYLLLASSPQDSRLYLVFPHDSSALSNSFHHLQLFDQDSSNVVSRFLQDPYSTTFSSFSRVTNFFRGALQPQPEGAASDLPPPPDDEPEPGFEVISCVELGPRPTVERGPPVTEEEWARHVGPEGRLQQVPELKNRIFSGGLSPSLRREAWKFLLGYLSWEGTAEEHKAHIRKKTDEYFRMKLQWKSVSPEQERRNSLLHGYRSLIERDVSRTDRTNKFYEGPENPGLGLLNDILLTYCMYHFDLGYVQGMSDLLSPILYVIQNEVDAFWCFCGFMELVQGNFEESQETMKRQLGRLLLLLRVLDPLLCDFLDSQDSGSLCFCFRWLLIWFKREFPFPDVLRLWEVLWTGLPGPNLHLLVACAILDMERDTLMLSGFGSNEILKHINELTMKLSVEDVLTRAEALHRQLTACPELPHNVQEILGLAPPAEPHSPSPTASPLPLSPTRAPPTPPPSTDTAPQPDSSLEILPEEEDEGADS [TBC1D17]
melting temperature (HeLa Kyoto [1]; cell cycle stage: G1/S): 51.4 °C
melting temperature (HeLa Kyoto [1]; cell cycle stage: mitosis): 50.7 °C
solubility in G1/S (log2) (HeLa Kyoto [2]): -0.0906
solubility change mitosis (log2) (HeLa Kyoto [3]): -0.0875
thermal stability score (HeLa Kyoto [4]; [5]): -0.527
thermal stability score (HeLa Kyoto [4]; cell cycle stage: mitosis): -0.608

MEGCVSNLMVCNLAYSGKLEELKESILADKSLATRTDQDSRTALHWACSAGHTEIVEFLLQLGVPVNDKDDAGWSPLHIAASAGRDEIVKALLGKGAQVNAVNQNGCTPLHYAASKNRHEIAVMLLEGGANPDAKDHYEATAMHRAAAKGNLKMIHILLYYKASTNIQDTEGNTPLHLACDEERVEEAKLLVSQGASIYIENKEEKTPLQVAKGGLGLILKRMVEG [PSMD10]
melting temperature (HeLa Kyoto [1]; cell cycle stage: G1/S): 48.5 °C
melting temperature (HeLa Kyoto [1]; cell cycle stage: mitosis): 49.8 °C
solubility in G1/S (log2) (HeLa Kyoto [2]): 0.145
solubility change mitosis (log2) (HeLa Kyoto [3]): 0.136
thermal stability score (HeLa Kyoto [4]; [5]): 0.248
thermal stability score (HeLa Kyoto [4]; cell cycle stage: mitosis): 1.31

MEGDAVEAIVEESETFIKGKERKTYQRRREGGQEEDACHLPQNQTDGGEVVQDVNSSVQMVMMEQLDPTLLQMKTEVMEGTVAPEAEAAVDDTQIITLQVVNMEEQPINIGELQLVQVPVPVTVPVATTSVEELQGAYENEVSKEGLAESEPMICHTLPLPEGFQVVKVGANGEVETLEQGELPPQEDPSWQKDPDYQPPAKKTKKTKKSKLRYTEEGKDVDVSVYDFEEEQQEGLLSEVNAEKVVGNMKPPKPTKIKKKGVKKTFQCELCSYTCPRRSNLDRHMKSHTDERPHKCHLCGRAFRTVTLLRNHLNTHTGTRPHKCPDCDMAFVTSGELVRHRRYKHTHEKPFKCSMCDYASVEVSKLKRHIRSHTGERPFQCSLCSYASRDTYKLKRHMRTHSGEKPYECYICHARFTQSGTMKMHILQKHTENVAKFHCPHCDTVIARKSDLGVHLRKQHSYIEQGKKCRYCDAVFHERYALIQHQKSHKNEKRFKCDQCDYACRQERHMIMHKRTHTGEKPYACSHCDKTFRQKQLLDMHFKRYHDPNFVPAAFVCSKCGKTFTRRNTMARHADNCAGPDGVEGENGGETKKSKRGRKRKMRSKKEDSSDSENAEPDLDDNEDEEEPAVEIEPEPEPQPVTPAPPPAKKRRGRPPGRTNQPKQNQPTAIIQVEDQNTGAIENIIVEVKKEPDAEPAEGEEEEAQPAATDAPNGDLTPEMILSMMDR [CTCF]
melting temperature (HeLa Kyoto [1]; cell cycle stage: G1/S): 55.5 °C
melting temperature (HeLa Kyoto [1]; cell cycle stage: mitosis): 54.4 °C
solubility in G1/S (log2) (HeLa Kyoto [2]): -0.451
solubility change mitosis (log2) (HeLa Kyoto [3]): 0.0343
thermal stability score (HeLa Kyoto [4]; [5]): -1.57
thermal stability score (HeLa Kyoto [4]; cell cycle stage: mitosis): -1.93
